In assay [1] the target is negative unrelated control protein. Description: ELISA, negative control antigen. Background: An ELISA detects its analyte on a solid surface through an enzyme-linked reagent.
Assay [2] has as its target T1, CD18 on HEK293-CD18 cells (UniProt P05107 23-769).
T1 construct: whole, on cells; also called negative control protein CD18
Description: immunofluorescent staining of transfected HEK293 cells.

The text below walks through data of patent US20210340271A1 (PROMAB BIOTECHNOLOGIES, published 2021).

T1 sequence (P05107 23-769 limits assumed): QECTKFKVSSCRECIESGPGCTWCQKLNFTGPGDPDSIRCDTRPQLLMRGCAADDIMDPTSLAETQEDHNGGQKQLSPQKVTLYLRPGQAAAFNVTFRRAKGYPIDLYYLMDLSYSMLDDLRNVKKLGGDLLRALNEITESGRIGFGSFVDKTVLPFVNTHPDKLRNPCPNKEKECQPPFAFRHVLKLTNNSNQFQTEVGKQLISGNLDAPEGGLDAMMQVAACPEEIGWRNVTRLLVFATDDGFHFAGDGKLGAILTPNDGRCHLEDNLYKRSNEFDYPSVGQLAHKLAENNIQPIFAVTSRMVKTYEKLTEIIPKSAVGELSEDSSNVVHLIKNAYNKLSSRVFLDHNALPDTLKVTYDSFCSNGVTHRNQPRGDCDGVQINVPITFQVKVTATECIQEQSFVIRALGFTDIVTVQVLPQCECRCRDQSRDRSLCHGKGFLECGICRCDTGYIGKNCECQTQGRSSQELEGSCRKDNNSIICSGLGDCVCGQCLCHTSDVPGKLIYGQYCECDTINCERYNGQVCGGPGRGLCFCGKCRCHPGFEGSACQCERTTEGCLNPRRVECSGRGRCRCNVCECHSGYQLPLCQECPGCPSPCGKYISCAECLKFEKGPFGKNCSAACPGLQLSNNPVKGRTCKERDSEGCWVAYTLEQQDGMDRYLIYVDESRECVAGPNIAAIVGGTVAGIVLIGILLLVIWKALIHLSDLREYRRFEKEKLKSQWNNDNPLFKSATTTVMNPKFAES

B1: mouse monoclonal anti-human CD37 antibody, clone 2B8D12 (antibody, IgG1, V domains shown)
VH: QVKLDETGGGLVQPGRPMKLSCVASGFTFSDYWMNWVRQSPEKGLEWVAQIRDKPYNYETFYSDSVKGRFTISRDDSKSSVYLQMNNLGAEDMGIYYCTGSFAYWGQGTLVTVSA
VL: DIQMTQSPASLSASEGETVTITCRASGNIHNYLAWYQQKQGKSPQLLVYNAKTLPDGVPSRVSGSGSGTQYSLKINNLQPEDFGNYYCQQYWSTPYTFGGGSRLEIKR
notes: Mouse hybridoma antibody; also called antibody CD37; CD37 antibody (2B8D12)
Take B1: in assay [1], the OD405 is 0.098 OD405. The binding result in assay [2] is “no binding”.
